As usually defined, the koff is the first-order rate constant of dissociation. Read a high koff as fast dissociation. As usually defined, the Kd is the free concentration of one partner at which half of the binding sites on the other are occupied at equilibrium, for simple one-to-one binding. A low value points to higher affinity. As a reminder, the kon is the rate constant with which the complex forms. A low value points to slow association.

Square brackets hold non-standard residues; d marks the D form. Ends that are not written are not given here. * marks the point of attachment. Biotin = O=C1N[C@H]2[C@H](CS[C@H]2CCCCC(=O)*)N1; pY = N[C@@H](Cc1ccc(OP(=O)(O)O)cc1)C(=O)O

The target in experiment [1] is T1, ZAP70 tSH2-GFP (tandem SH2 domains of human ZAP70, amino acids 1-264, with C-terminal GFP) (human, UniProt P43403 1-264).
T1 construct: tandem SH2 domains of human ZAP70 (Zeta-chain-associated protein kinase 70), amino acids 1-264; Cloned into pET21 between NdeI and NotI; source: E. coli BL21 (DE3), purified (Ni2+-NTA, Sephacryl S-200 size exclusion); not shown: GFP, C-terminal, kept
T1 sequence (looked up): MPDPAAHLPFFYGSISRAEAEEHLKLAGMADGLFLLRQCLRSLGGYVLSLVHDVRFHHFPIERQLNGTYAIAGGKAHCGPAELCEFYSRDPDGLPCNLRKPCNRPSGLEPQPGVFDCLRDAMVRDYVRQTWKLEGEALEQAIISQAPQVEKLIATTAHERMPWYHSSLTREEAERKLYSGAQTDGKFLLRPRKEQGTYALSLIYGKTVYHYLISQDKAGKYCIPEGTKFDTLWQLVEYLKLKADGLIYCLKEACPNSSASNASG
The experiment is described as follows: single particle tracking by TIRF microscopy; biotinylated ITAM3 peptides immobilised on coverslips coated with poly-L-lysine-PEG-biotin and streptavidin; ZAP70 tSH2-GFP or tSH2-Halo-Alexa647 at 200 nM in PBS/BSA with 1 mM DTT; 37°C; distributions of binding times fitted with exponentials (slow phase of a two-phase decay for the biphosphorylated peptide). The following applies: both partners purified.

In experiment [2] the target is T1, ZAP70 tSH2-GFP (tandem SH2 domains of …). The experiment is described as follows: SPR; Biacore S200, 37°C, HBS-EP (10 mM HEPES pH 7.4, 150 mM NaCl, 1 mM EDTA, 0.005% Tween P20), 50 µl/min; biotinylated peptides or Avi-CD3ζ ITAM3 immobilised on streptavidin-coupled CM5 chips, ZAP70 tSH2-GFP injected; 1:1 binding model, 'effective' constants for the biphosphorylated peptide; on Avi-CD3ζ ITAM3 also ABA injections of 500 nM ZAP70 with CD45 cytoplasmic domain. The following applies: both partners purified.

B1: ITAM3 NC (biphosphorylated CD3ζ ITAM3 peptide) (peptide)
peptide: Biotin-GKGHDLL[pY]QGLSTATKDT[pY]DALHMQ
notes: peptide derived from the membrane-distal ITAM of CD3ζ (ITAM3); also called ITAM NC; biphosphorylated ITAM3; source: synthetic peptide; bought: PeptideSynthetics (>95% pure)
In experiment [1], B1 gave a koff of 0.368 ± 0.011 s⁻¹. Also, in experiment [2], binding was put at a Kd of 96 nM, the koff was 0.227 s⁻¹ and the association rate constant (kon) was 1.89e+06 M⁻¹ s⁻¹.

B2: ITAM3 N (N-monophosphorylated CD3ζ ITAM3 peptide) (peptide)
peptide: Biotin-GKGHDLL[pY]QGLSTATKDTYDALHMQ
notes: peptide derived from the membrane-distal ITAM of CD3ζ (ITAM3); also called ITAM N; monophosphorylated ITAM3 N; source: synthetic peptide; bought: PeptideSynthetics (>95% pure)
In experiment [1], B2 displayed a dissociation rate constant (koff) of 11.4 ± 0.011 s⁻¹.

B3: ITAM3 C (C-monophosphorylated CD3ζ ITAM3 peptide) (peptide)
peptide: Biotin-GKGHDLLYQGLSTATKDT[pY]DALHMQ
notes: peptide derived from the membrane-distal ITAM of CD3ζ (ITAM3); also called ITAM C; monophosphorylated ITAM3 C; source: synthetic peptide; bought: PeptideSynthetics (>95% pure)
Molecule B3 displayed a dissociation rate constant (koff) in experiment [1] of 4.75 ± 0.14 s⁻¹.

(Values after doi:10.1101/2020.02.12.945170, “Regulated unbinding of ZAP70 at the T cell receptor by kinetic avidity” (bioRxiv, 2020).)
